These results are taken from PMC1635258.

Read-outs that look alike come from different tables or passages of the source.

In data set [1] the target is T1, hRPA (replication protein A heterotrimer p70/p32/p14) (human, UniProt P27694;P15927;P35244 1-616;1-270;1-121). Briefly: EMSA. On the technique in general: A gel shift assay detects complexes by their altered migration in electrophoresis.
Data set [2] has as its target T1, hRPA (replication protein A …). The data set can be described thus: EMSA. The source holds these as a separate data set.

T1 sequence (P27694 whole entry, chain 1 of 3): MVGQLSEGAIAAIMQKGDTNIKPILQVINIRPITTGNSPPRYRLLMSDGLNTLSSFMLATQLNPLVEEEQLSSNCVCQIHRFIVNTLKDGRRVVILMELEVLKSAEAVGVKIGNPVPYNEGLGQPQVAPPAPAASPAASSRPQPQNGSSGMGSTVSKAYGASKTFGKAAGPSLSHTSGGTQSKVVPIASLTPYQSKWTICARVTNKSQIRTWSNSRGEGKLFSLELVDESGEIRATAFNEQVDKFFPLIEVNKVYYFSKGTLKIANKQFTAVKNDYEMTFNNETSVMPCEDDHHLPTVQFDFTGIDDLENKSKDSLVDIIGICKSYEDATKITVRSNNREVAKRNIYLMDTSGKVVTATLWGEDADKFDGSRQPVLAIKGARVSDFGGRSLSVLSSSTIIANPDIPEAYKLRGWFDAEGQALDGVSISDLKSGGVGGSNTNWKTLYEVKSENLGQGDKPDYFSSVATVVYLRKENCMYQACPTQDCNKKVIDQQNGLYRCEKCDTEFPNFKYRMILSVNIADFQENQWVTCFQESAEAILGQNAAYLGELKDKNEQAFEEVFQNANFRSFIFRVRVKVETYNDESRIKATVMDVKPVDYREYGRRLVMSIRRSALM
T1 sequence (P15927 whole entry, chain 2 of 3): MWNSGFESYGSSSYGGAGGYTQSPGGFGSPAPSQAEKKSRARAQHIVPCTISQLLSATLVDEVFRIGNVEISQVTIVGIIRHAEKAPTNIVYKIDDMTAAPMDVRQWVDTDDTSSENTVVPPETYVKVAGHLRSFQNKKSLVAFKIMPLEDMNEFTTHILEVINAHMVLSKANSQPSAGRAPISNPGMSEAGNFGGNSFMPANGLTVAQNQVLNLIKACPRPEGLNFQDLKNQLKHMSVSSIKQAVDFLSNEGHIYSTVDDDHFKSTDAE
T1 sequence (P35244 whole entry, chain 3 of 3): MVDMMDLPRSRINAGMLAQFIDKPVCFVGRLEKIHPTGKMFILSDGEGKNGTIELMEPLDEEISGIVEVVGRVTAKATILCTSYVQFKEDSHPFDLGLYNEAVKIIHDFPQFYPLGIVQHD

As for GGGTTAGGGTTAGGGTTAGGG (structured_DNA) [htelo], the binding result in data set [1] is given as “binds”.

In the case of TTTTTTTTTTTTTTTTTTTTT (ssDNA) [T21], the binding result in data set [2] is “binds”.
